Data published in US10286050B2 (The United States of America, as represented by the …, priority 2013, dated 2019).
Entries after “also recorded” stand apart in the source; their conditions may differ.

Legend:
[1] = Storage stability of vialed product; assay type: physicochemical
Method: Stability and Storage: KLH-HMW is stable for at least 12 months when stored at 2 to 8° C.
Stability and Storage: The finished injectable dosage forms are stored in the freezer (−70′C) for long-term storage. Intact vials are stable for at least 6 months when stored at controlled room temperature (15° C.-30° C.) or in the refrigerator (2° C.-8° C.), and for at least 36 months when stored in the freezer (−10° C. to −25° C. and −70° C.). The peptide vial contains no preservatives; once the peptide vial is entered, unused peptide solution is discarded after 3 hours.
Stability and Storage: The finished injectable dosage forms are stored in the freezer (−70° C.) for long-term storage. Intact vials are stable for at least 6 months when stored at controlled room temperature (15° C.-30° C.), at least 9 months when stored in the refrigerator (2° C.-8° C.), and for at least 36 months when stored in the freezer (−10° C. to −25° C. and −70° C.). The peptide vial contains no preservatives; once the peptide vial is entered, unused peptide solution is discarded after 3 hours.

HLA-A2 = HLA-A2 (Homo sapiens, UniProt P04439, D140Y/D185E/D98H/E176V/E277Q/G131W/G231S/I119V/I121R/I166T/I218V/L300P/L318F/N151K/N90K/P208A/P217A/Q86G/Q94H/R138H/R169H/T345S); settings: cited from earlier work
human T cells = settings: cited from earlier work; for recognition of peptide-pulsed targets by peptide-specific human T cells: human T cells specific for the named peptide
[2] = test system: A2K^b transgenic mice (expressing human HLA-A*0201); settings: cited from earlier work
[3] = controlled room temperature (15° C.-30° C.)
[4] = freezer (−10° C. to −25° C. and −70° C.)

Sequence | stability of intact vials [1, 3] | stability of intact vials [1, 4] | stability of intact vials ([1]; refrigerator (2° C.-8° C.)) | binding affinity relative to TARP 29-37 (HLA-A2; HLA-A2 epitopes, fold greater than TARP 29-37) [times] | recognition of peptide-pulsed targets by peptide-specific human T cells (human T cells) | level of CD8+ T cell response ([2]; A2K^b transgenic mice) | immunogenicity in A2K^b transgenic mice ([2]; dendritic cells pulsed with the peptides or DNA encoding the peptides) | change of binding affinity to HLA-A2 by epitope enhancement (HLA-A2; amino acid substitution versus wild-type peptide) | immunogenicity in human T cells (human T cells; human cells) | percentage of TARP-specific CD8+ T cells ([2]; A2K^b transgenic mice, versus wild type sequence)
FVFLRNFSL [TARP 27-35] | at least 6 months | at least 36 months | at least 6 months | 10 | recognized targets pulsed with that sequence | higher level of CD8+ T cell response than TARP29-37 | immunogenic |  |  | 
FLRNFSLMV [TARP 29-37-9V] | at least 6 months | at least 36 months | at least 9 months |  | recognized targets pulsed with all three peptides equally well |  |  | lower binding affinity to HLA-A2 than TARP29-37-3A; also recorded: did enhance the binding affinity compared with the wild-type peptide | immunogenic | higher percentage of TARP-specific CD8^+ T cells than the wild type sequence
